Data taken from doi:10.1101/2023.02.26.530074, “Atomic resolution structure of a DNA-binding histone protein from the bacterium Bdellovibrio bacteriovorus” (bioRxiv, 2023).

Target: the molecule itself
Assay: SEC-MALS; HBb at 3 mg/mL, Superdex 75 Increase 10/300 GL, 20 mM Tris pH 8.0, 150 mM NaCl, 1 M urea, 0.5 mL/min

B1: histone protein HBb from Bdellovibrio bacteriovorus (natural protein)
chain: MAEVLVVTSKVKKLIKEKGQMNTSAETIDVLSKAIEQLCLKGVESAKADGRKTVMARDIVIDHL
notes: HBb, histone homolog of Bdellovibrio bacteriovorus HD100, UniProt Q6MRM1; 64 amino acid residues, single histone fold domain; the gene encoding HBb was codon-optimized, synthesized and cloned into pETHis1a; In the crystal the first three and last three amino acids are not resolved; also called bacterial histone HBb; Bd0055; source: E. coli Mutant56(DE3), purified (HisTrap, TEV cleavage, second …)
**Q.** How did the “stoichiometry N” value turn out when B1 was run?
**A.** 2
